Substrate: Nc1ncnc2c1ncn2[C@@H]1O[C@H](COP(=O)(O)OP(=O)(O)OP(=O)(O)O)[C@@H](O)[C@H]1O
Experiment: in vitro enzymatic assay, Km app for ATP
Type: biochemical, Homo sapiens
Conditions: ATP-binding site

| Protein | Km [µM] |
| --- | --- |
| ROS1 kinase domain G2032R mutant (Homo sapiens; G2032R) (protein) IENLPAFPREKLTLRLLLGSGAFGEVYEGTAVDILGVGSGEIKVAVKTLKKGSTDQEKIEFLKEAHLMSKFNHPNILKQLGVCLLNEPQYIILELMEGRDLLTYLRKARMATFYGPLLTLVDLVDLCVDISKGCVYLERMHFIHRDLAARNCLVSVKDYTSPRIVKIGDFGLARDIYKNDYYRKRGEGLLPVRWMAPESLMDGIFTTQSDVWSFGILIWEILTLGHQPYPAHSNLDVLNYVQTGGRLEPPRNCPDDLWNLMTQCWAQEPDQRPTFHRIQDQLQLFRNFFLNSIYKSRDE | 22 |
| ROS1 kinase domain (nonmutant) (Homo sapiens) (protein) IENLPAFPREKLTLRLLLGSGAFGEVYEGTAVDILGVGSGEIKVAVKTLKKGSTDQEKIEFLKEAHLMSKFNHPNILKQLGVCLLNEPQYIILELMEGGDLLTYLRKARMATFYGPLLTLVDLVDLCVDISKGCVYLERMHFIHRDLAARNCLVSVKDYTSPRIVKIGDFGLARDIYKNDYYRKRGEGLLPVRWMAPESLMDGIFTTQSDVWSFGILIWEILTLGHQPYPAHSNLDVLNYVQTGGRLEPPRNCPDDLWNLMTQCWAQEPDQRPTFHRIQDQLQLFRNFFLNSIYKSRDE | 65 |

Source: article PMC3878821
